Experiment: soluble on expression in E. coli; label from the status in PepcDB or PDB records

Row | Sequence | soluble on expression in E. coli
1 | MGSDKIHHHHHHMKKFLCFIMSVGLILSLVGCGKSGKTNIKVPAKSIDGKDSSISLDIMATNKFLYNVIKDISGNRHNVQFMFKNDIDVKQFDYTSDSINNVSKYNIFMYLGADFEPWASDFIGKLDKNSIATVDMSRGTKILNLDDKVQYGNITVEKNSYYWTDLNNYKTMLVNIKNSLEEKDPKSRDLYEKNFAAYIKKVNDCEKEFKGINDKLKGYTFVTNSSNFDYFFNYAGLDSVKVSEDELSKPDTSKELNDKLKDKEKICYIYSDDGSVQSNNAVIQKYKMKTLKFVTYDENSDYICIIKDNIKSMKELIK | not soluble
2 | MEVSTSYCTPAVNFKYGSFQDSDVSMREDDLFRMGSYNSQGYYADGTHLDGSIGEEDETSSGSNDQHMDFEEDDFDMESSMTEDLVDEDEEEEDEEDNDEWTNQKRTDNQNSVAYYAAMEMLRIRFPFQSIAIRISDFCCLQEKDLLNDTMIDFYLNHIVEHVLPDSNGSNVTVLPSIFWHNLSLRQHAFDSEDEKMMSDEQKMDLKFGDLHDFVADFDLQDFDYIVVPVNEWEHWSLAVICHPFTAQARTVIFDSQLTADLNNLQNMATLIESFMKYSYEKRTGNAMPFPLPCILPQRMPQQTNNFDCGIFIAEFARRFLLSPPKDPATISLCFHPLATLL | not soluble
3 | SLFAKATRNFLREVDADGDLIAVSNLNDSDKLQLLSLVTKKKRFWCWQRPKYQFLSLTLGDVLIEDQFPSPVVVESDFVKYEGKFANHVSGTLETALGKVKLNLGGSSRVESQSSFGTLRKQEVDLQQLIRDSAERTINLRNPVLQQVLEGRNEVLCVLTQKITTMQKCVISEHMQVEEKCGGIVGIQTKTVQVSATEDGNVTKDSNVVLEIPAATTIAYGVIELYVKLDGQFEFCLLRGKQGGFENKKRIDSVYLDPLVFREFAFIDMPDAAHGISSQDGPLSVLKQATLLLERNFHPFAELPEPQQTALSDIFQAVLFDDELLMVLEPVCDDLVSGLSPTVAVLGELKPRQQQDLVAFLQLVGCSLQGGCPGPEDAGSKQLFMTAYFLVSALAEMPDSAAALLGTCCKLQIIPTLCHLLRALSDDGVSDLEDPTLTPLKDTERFGIVQRLFASADISLERLKSSVKAVILKDSKVFPLLLCITLNGLCALGREHSEG | not soluble
4 | MGSDKIHHHHHHMSKLAAFLGRAIPTHQQKQSSHLGDRTLYVGASDIAGCPRKAALGKQNPTGHDIKTLLRFSRGHAAQAMYADFFRTGGALFEEEVEVRHPAIPEIRCHIDFLFYANRQTKRLHIVEMKSTDGIPDEPYASWVDQLHVQMGLLQLTLDPAVEIGGSILVVDLNAGSYHEFNSYTPNRLVFDQLVEKGKHILAAARGECAPRTEPGILCGYCPFRTGCPSHAVALDLPREILDTGRKYLELNEQKKALENRLDVLKNDILTFADGTFKGASDGILINVTSVADSTTIDSYKLKRNYPDIYDQVTKPKSGYVKLEIKPFTPLAAQAA | not soluble
5 | GSAASSALKGLIQQFTTITGASESVGKHMLEACNNNLEMAVTMFLDGGG | soluble
6 | MGSDKIHHHHHHMEANSIDVNSILANKNLIIKFQPVVSVIKKSVIGLEAVCLGSSDDNGGIISTSKLFKTAEEQGVLIELDRLYREKAVKEFVKVYKRNKELLLFLDINISIIDKYVGSGIIMNLISDSGISTNNVVLQIIEGKMTNLEALKKFIYLYRSNGFLVALKDLGTGFANMDKISYVEPDIIKINSVLTKGIEVDYYRQEVFRSLVNLSKKIGALVVCEDIASEQETMMIMELGADMLEGSYFENDFDLGEKFLDASRKLIDATAVKYEKYTEEEVKAKEMIYSGYDFVINEALKELSSLTEDKFDDSINTVINKNSKLECVYVLNKEGIQVGSTATRFTDMVPQRALIFEPAQKGTNHSLKKYYYFLKTMSLNKYVTEPYISLATGNLCITISAVFKNLEGKEYILCVDFNPNYMSM | not soluble
7 | MVWQREKLLQVNEIGYRDIDAGVPMQRDTLFRIASMTKPVTVAAAMSLVDEGKLALRDPITRWAPELCKVAVLDDAAGPLDRTHPARRAILIEDLLTHTSGLAYGFSVSGPISRAYQRLPFGQGPDVWLAALATLPLVHQPGDRVTYSHAIDVLGVIVSRIEDAPLYQIIDERVLGPAGMTDTGFYVSADAQRRAATMYRLDEQDRLRHDVMGPPHVTPPSFCNAGGGLWSTADDYLRFVRMLLGDGTVDGVRVLSPESVRLMRTDRLTDEQKRHSFLGAPFWVGRGFGLNLSVVTDPAKSRPLFGPGGLGTFSWPGAYGTWWQADPSADLILLYLIQHCPDLSVDAAAAVAGNPSLAKLRTAQPKFVRRTYRALGL | not soluble
8 | ARSEKRVPMTRLRKRVAERLLEAKNSTAMLTTFNEVNMKPIMDLRKQYGEAFEKRHGIRLGFMSFYVKAVVEALKRYPEVNASIDGDDVVYHNYFDVSMAVSTPRGLVTPVLRDVDTLGMADIEKKIKELAVKGRDGKLTVEDLTGGNFTITNGGVFGSLMSTPIINPPQSAILGMHAIKDRPMAVNGQVEILPMMYLALSYDHRLIDGRESVGFLVTIKELLEDPTRLLLDV | soluble
9 | MGHHHHHHSHMFSEECIMDVIGCLEYDPALSQPRKHREFLTKTAKFKEVIPISDPELKQKIHQTYRVQYIQDMVLPTPSVFEENMLSTLHSFIFFNKVEIVGMLQEDEKFLTDLFAQLTDEATDEEKRQELVNFLKEFCAFSQTLQPQNRDAFFKTLSNMGILPALEVILGMDDTQVRSAATDIFSYLVEYNPSMVREFVMQEAQQNDDVSKKLTEQKITSKVNIICTNSKYLYIGSYNCFYYSF | soluble
10 | MGSDKIHHHHHHMARQFIYHMAGLSKTYGNKKILENIHLSFYPDAKIGILGPNGAGKSTILRIMAGIDKEYTGEAWLSEGVRCGYLPQEPFLDASKDVRDNVMEGVADKQAIVERYNELMMNYSEETADESARLQDIIDGQNLWDLESQVEMAMAALGCPPANGDVTKLSGGERRRVALCKLLLSKPDLLLLDEPTNHLDAETTAWLERYLREYSGAVLLVTHDRYFLDNVTGWILELDRGKGIPYEGNYSAYLAAKAKRLAQEGREEAARQRALSREQEWIASSPKGRQAKSKARIKAYDELVQASRERRPGEAQIIIPIGERLGQVVIEVDNLSKAYGERVLIDDLSFKLPAGGIVGVIGANGMGKSTLFKMLTGQEQPDSGQIRIGETAHMSYVDQSRDSLVGDKTVWEEISGGNDVIKLGKYEMNSRAYCGAFNFKGADQQQKVANLSGGQRNRVHLAKLLKEGGNVLLLDEPTNDLDTETLGALEDALENFAGCAVIISHDRMFLDRLATHILAFEGDGHVEWFEGNFAEYEADKVRRFGADSLNLKRVNYKPLTR | not soluble
11 | MGSDKIHHHHHHAICLRDDIGNYVIKWETDPVMEGIVKMTVSDNPDLFTNESPIIYANIKDGVATYITNDNISRKYFRLSFNDKYPRIIGARSAVMDSVQNFRDLGGYTSTNGKTVKWGKVFRSGELSSLSEWDSIRLDNLGIKTIIDLRTNQETLTAPIKYTKANILQIPISVGKIADAPQRVIEGRMRKGDAGVYMEDEYLQFVTDNTDQFAKVLEQFQNEDNYPILISCSYGKDRTGFLTAMLLAALDIPRDAIMEDYLTSNQYIDTSHLADIVKHLSTDAQESITVFLTANEGLMDLAFHKIKKEYGSTEKYLSKGLRLTDKKRERLKDILLY | not soluble
12 | MSLSISEKPLSELLRPKDFEDFVGQDHIFGNKGILRRTLKTGNMFSSILYGPPGSGKTSVFSLLKRYFNGEVVYLSSTVHGVSEIKNVLKRGEQLRKYGKKLLLFLDEIHRLNKNQQMVLVSHVERGDIVLVATTTENPSFVIVPALLSRCRILYFKKLSDEDLMKILKKATEVLNIDLEESVEKAIVRHSEGDARKLLNTLEIVHQAFKNKRVTLEDLETLLGNVSGYTKESHYDFASAFIKSMRGSDPNAAVYYLVKMIEMGEDPRFIARRMIIFASEDVGLADPNALHIAVSTSIAVEHVGLPECLMNLVECAVYLSLAPKSNSVYLAMKEGHHHHHH | not soluble
13 | GHHHHHHMTTQLEQAWELAKQRFAAVGIDVEEALRQLDRLPVSMHCWQGDDVSGFENPEGSLTGGIQATGNYPGKARNASELRADLEQAMRLIPGPKRLNLHAIYLESDTPVSRDQIKPEHFKNWVEWAKANQLGLDFNPSCFSHPLSADGFTLSHADDSIRQFWIDHCKASRRVSAYFGEQLGTPSVMNIWIPDGMKDITVDRLAPRQRLLAALDEVISEKLNPAHHIDAVESKLFGIGAESYTVGSNEFYMGYATSRQTALCLDAGHFHPTEVISDKISAAMLYVPQLLLHVSRPVRWDSDHVVLLDDETQAIASEIVRHDLFDRVHIGLDFFDASINRIAAWVIGTRNMKKALLRALLEPTAELRKLEAPGDYTARLALLEEQKSLPWQAVWEMYCQRHDTPAGSEWLESVRAYEKEILSRRG | soluble
14 | DPHAYEHNLKSWVGNTPVFATVNQLDLDEEQSTLLKGEVGVDWYWMGYEAGKYLAERHPKGSGKTNIALLLGPRTRGGTKPVTTGFYEAIKNSDIHIVDSFWADNDKELQRNLVQRVIDMGNIDYIVGSAVAIEAAISELRSADKTHDIGLVSVYLSHGVYRGLLRNKVLFAPTDKMVQQGRLSVMQAAHYLRHQPYEKQASPIIKPLTPKTLHDDTIEESLSPSEYRPTFSIKAVD | not soluble
15 | MSLNEITVSLDVIIKNKNVMVSSLSVAKAFDRQHSHILRSIEDIKRDWDSLIQSKNGLNRNIIPLKSQGNKQVIFTDYFKESEYIAENGRLVKFFEMNRNGFMLLANSFNGKRILPIKLAFIERFDELEHITLEQAKETENRKNLNQAIKESPHFKPFYYSRFSDFLCQLITHNKYKTVKKLREDKGYYGKQFSKIPLKSMLDSEEDLKRLQKLENSIIAWLEIDYSFREIKAFLTKEKAQPLPTKEGHHHHHH | not soluble
16 | MGSDKIHHHHHHMIYIGLPQWSHPKWVRLGITSLEEYARHFNCVEGNTTLYALPKPEIVARWYEQTHDDFRFCFKFPATISHQAALRHCDELSSEFFARLAPLASRIGQYWLQLPATFGPRDLPALWHFLDGLPKDFTYGVEVRHPEFFAKEEAEQQLNRGLHERNVNRVILDSRPVHSAAATSPAMIDAQQKKPKVPVHAVMTARQPMVRFIGGDDMAHNRELFRVWLQTLAKWHQSGTPWLFLHTPDIAFAPALVDTLWGDLRAALPAAGNAPSIPQQSSLF | not soluble
17 | MSAEKSSADTAKKTLTIYSTMSTDSERDTFRKLAAAFEKEHSDIHVSLHFPGNDYENMMRVRMAANDLPDLFDTHGWGKIRYGEYTADLRDMKWTQDLDPNLNSILKNKSGKVYAYPINQAKDGLAYNRNILDRYGIAPPETMDDFIKALRTIKEKSKGSIVPFWFAGYDKSSFAQYYDQFATPLLITDPAHNEKKQLINGTFQWSKFTYLSEILKQMQKEKLINIDAVTAKKSQLIELMAQNKIAFTMQGGTLGQDVAQINPNVKVGIIPTPAIHPGDDPIWIGGERYTLAAWKDSPQLKEAKDFIAFMARPANAKQMAEATSLPSGLTNVKADIFYANDYEYYQDVKVEPYFDRLYLPNGMWDVLGTVGQELAADILAPQDISQKLGREYKRLREQSETQGAENNELEHHHHHH | soluble
18 | MKVERVERVEDIDFEGLLKEGYTCFFFDFDNTLVPWKESKLEESKRRLLIELAKKARVVVVSNGKPRKVDLPVMFIWRAGKPFSLKLWRFLKKEKIDPKRCVMIGDQIFTDVLTGKIFGFRVIKVEPISAKEFFGTKILRFFEKILEGKVR | not soluble
19 | MFQDMSKDFDIKRIKRSNTSCSTGVGAHVHPFNEIFYLSSGECTSFIDHNIYKFGKGDLVIVPSGCLHRTTYNGKGMHERIVISFRNEATEWIQNQTGKELMENCMKPGVVNIPEKRRDYVVALLDKLIFENDSPDELSPAFIKVGLIELLLFIIRCKNYEENVIKEIDVDNR | not soluble
